Laboratory results: patent US20240238445A1, “INHIBITORS AND USES THEREOF” (NEURACLE SCIENCE CO., LTD., priority 2021, published 2024)

Tests used:
[1] = target: binding of FAM19A5 protein to full-length ectodomain of LRRC4 protein (Homo sapiens, UniProt Q7Z5A7); test: Competitive inhibition assay, plate coated with full-length ectodomain of LRRC4; settings: FAM19A5 5 ng/mL; 100 nM/well coat
Method: As described in Example 3, there appeared to be much similarity in the binding domains of the different members of the LRRC4 family. […] Then, recombinant FAM19A5 protein (5 ng/mL) was added in combination with one of the following: (i) LRRC4B (484-576) protein fragment, (ii) LRRC4B (453-576, AA) protein fragment, and (iii) synthetic FB-20 peptide. The plates were incubated at 37° C., and then, the amount of FAM19A5 protein bound to the coated LRRC4, LRRC4B, or LRRC4C proteins was measured using anti-FAM19A5 (1-65) antibody.

[2] = target: T1, FAM19A5 isoform 2 - LRRC4B protein complex in HEK293 cells (Homo sapiens, UniProt Q7Z5A7); test: Immunofluorescence: dissociation of FAM19A5 from full-length LRRC4B in HEK293 cells; type: cell-based; settings: HEK293 cells expressing FAM19A5 isoform 2 and LRRC4B, treated 30 minutes
T1 construct: expressed in transfected cells; host or cells: HEK293
Method: Since LRRC4B protein fragments containing the binding domain described in Example 2 (e.g., LRRC4B (453-576); i.e., construct #11 in Table 6) was able to bind to FAM19A5 protein with high affinity, it was next assessed whether such protein fragments could compete with naturally existing LRRC4B protein for binding to FAM19A5 protein, and thereby, dissociate the FAM19A5-LRRC4 protein family complex. Briefly, HEK293 cells expressing both FAM19A5 isoform 2 and LRRC4B protein were treated in vitro for 30 minutes with either LRRC4B (453-576)-hFc or mutant LRRC4B (453-576)-hFc (includes alanine substitutions at positions 488 and 489 of SEQ ID NO: 2; SEQ ID NO: 16) protein fragments. Then, cells were immunostained with anti-FAM19A5 (1-65) and anti-LRRC4B antibodies to determine the expression of FAM19A5 and full-length LRRC4B proteins, respectively. The hFc-fused LRRC4B protein fragments were determined using an anti-hIgG antibody. The nuclei were stained with Hoechst 33342.

[3] = system: mouse primary hippocampal neurons; test: Synaptic marker (SYP, PSD95) expression in mouse primary hippocampal neurons; type: cell-based; settings: 6 or 60 nM
Method: Next, it is generally known that neurites that outgrow from other neurites are capable of differentiating into axons, forming presynapses. Other neurites remain minor neurites and differentiate into dendrites, forming postsynapses. Therefore, whether the LRRC4B (453-576) protein fragment can also affect pre- and post-synaptic formation was also assessed. Briefly, mouse primary hippocampal neurons were cultured in vitro with the LRRC4B (453-576) protein fragment (6 or 60 nM). Control cells were treated with either DMSO (“Veh”) or the mutant LRRC4B (453-576) protein fragment which is not capable of binding to FAM19A5 protein (comprises alanine substitutions at positions 488 and 489). Then, at days 3 and 6 post initial culture, the expression level of synaptophysin (SYP; a presynaptic marker) was assessed. At day 7 post initial culture, the expression level of postsynaptic density 95 (PSD95; a postsynaptic marker) was assessed.
Primary hippocampal neurons were prepared from postnatal pups (postnatal day 1) of C57BL/6 (Nara Biotech, Seoul, Korea) as previously described by Beaudoin et al., Nature protocols 7(9): 1741-1754 (2012), which is incorporated herein by reference in its entirety. Briefly, cortices were dissected in Hank's buffered salt solution (HBSS) (Invitrogen, Carlsbad, CA, USA) and digested with 2.5% trypsin for 15 min at 37° C. […]

Sequence of binding of FAM19A5 protein to full-length ectodomain of LRRC4 protein (Q7Z5A7 44-132): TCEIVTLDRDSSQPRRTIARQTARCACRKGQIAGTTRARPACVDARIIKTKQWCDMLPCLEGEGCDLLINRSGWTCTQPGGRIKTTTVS
T1 sequence (Q7Z5A7 1-125 isoform Q7Z5A7-2, one chain of several): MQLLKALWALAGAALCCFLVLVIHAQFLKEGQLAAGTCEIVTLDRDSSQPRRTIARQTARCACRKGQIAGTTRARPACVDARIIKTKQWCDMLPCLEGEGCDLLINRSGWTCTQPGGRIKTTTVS

Molecule	inhibition of FAM19A5 binding to coated LRRC4 protein (in words) [1]	dissociation of FAM19A5 from full-length LRRC4B protein [2]	SYP and PSD95 expression [3]	number of puncta colabeled with SYP and PSD95 [3]
GYTYFTTVTVETLETQPGEE [FB-20]	able to inhibit FAM19A5 protein from binding	–	–	–
LRRC4B (453-576): LRRC4B ectodomain fragment, amino acids 453-576 of SEQ ID NO: 2; FLAG-tagged or hFc-fused (protein, FLAG tag or human Fc, FLAG-tagged or hFc-fused) VSAVDPVAAGGTGSGGGGPGGSGGVGGGSGGYTYFTTVTVETLETQPGEEALQPRGTEKEPPGPTTDGVWGGGRPGDAAGPASSSTTAPAPRSSRPTEKAFTVPITDVTENALKDLDDVMKTTK	–	largely dissociated from the full-length LRRC4B protein	increased both SYP and PSD95 expression	increased number of puncta that were colabeled with SYP and PSD95
